Sequences and labels used below:
B1: Beta-secretase 1 (Homo sapiens), P56817 (parent)
chain: MAQALPWLLLWMGAGVLPAHGTQHGIRLPLRSGLGGAPLGLRLPRETDEEPEEPGRRGSFVEMVDNLRGKSGQGYYVEMTVGSPPQTLNILVDTGSSNFAVGAAPHPFLHRYYQRQLSSTYRDLRKGVYVPYTQGKWEGELGTDLVSIPHGPNVTVRANIAAITESDKFFINGSNWEGILGLAYAEIARPDDSLEPFFDSLVKQTHVPNLFSLQLCGAGFPLNQSEVLASVGGSMIIGGIDHSLYTGSLWYTPIRREWYYEVIIVRVEINGQDLKMDCKEYNYDKSIVDSGTTNLRLPKKVFEAAVKSIKAASSTEKFPDGFWLGEQLVCWQAGTTPWNIFPVISLYLMGEVTNQSFRITILPQQYLRPVEDVATSQDDCYKFAISQSSTGTVMGAVIMEGFYVVFDRARKRIGFAVSACHVHDEFRTAAVEGPFVTLDMEDCGYNIPQTDESTLMTIAYVMAAICALFMLPLCLMVCQWRCLRCLRQQHDDFADDISLLK
partner: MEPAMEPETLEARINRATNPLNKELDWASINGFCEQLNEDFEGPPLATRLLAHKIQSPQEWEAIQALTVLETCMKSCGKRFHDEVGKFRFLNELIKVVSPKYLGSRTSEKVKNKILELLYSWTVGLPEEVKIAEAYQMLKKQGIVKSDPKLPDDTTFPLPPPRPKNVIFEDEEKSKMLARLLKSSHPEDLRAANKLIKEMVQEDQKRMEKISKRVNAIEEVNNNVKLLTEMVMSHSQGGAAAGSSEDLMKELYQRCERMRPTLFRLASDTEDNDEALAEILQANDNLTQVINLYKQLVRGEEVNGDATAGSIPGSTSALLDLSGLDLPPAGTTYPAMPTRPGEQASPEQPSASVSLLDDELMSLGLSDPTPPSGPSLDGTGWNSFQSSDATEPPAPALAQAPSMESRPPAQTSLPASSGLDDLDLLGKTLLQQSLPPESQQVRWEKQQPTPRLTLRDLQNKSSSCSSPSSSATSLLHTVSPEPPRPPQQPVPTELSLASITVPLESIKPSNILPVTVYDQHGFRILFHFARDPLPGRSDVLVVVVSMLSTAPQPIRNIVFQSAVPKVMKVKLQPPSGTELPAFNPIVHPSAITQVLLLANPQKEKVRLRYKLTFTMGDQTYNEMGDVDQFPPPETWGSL

The variants in the assay derive from B1. To be noted: with gga1_human GGA1, Q9UJY5.
S498A: the “effect of a mutation on the interaction” value is given as “decreasing interaction strength”.

In the case of S498D, the “effect of a mutation on the interaction” value is reported as “with no effect”.

(Values after IntAct's records for PubMed 15466887.)
